This is an account of results in the nanobody polyreactivity screen of Harvey et al. (2022).

The data set in a line: yeast display, Sf9 membrane polyspecificity reagent, FACS + sequencing; frameworks hold sequencing errors. Put shortly:
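Sorting gates, low and high (top ~1%), were placed on anti-HA fluorescence to track expression and on streptavidin fluorescence to track reagent binding. A clone's polyreactivity label is taken from the gate it came out of. The reagent was 10% biotinylated, detergent-solubilized Sf9 membrane, applied for 1 hour at 4 °C to galactose-induced yeast display cells.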
Regarding “QVQVVESGGGLVQAGGSLRLSCAASGGTDYYYAMGWYRQAPGKERELFAAITESGGSTYYADSVKARYTISRDNAKTTVYVQMNSLKPEDTAVYYCNADWRRWYIFSYDYWGQGTQVTVSS”, the “polyreactivity (PSR sort gate)” value is reported as “low polyreactivity”. Next, “QVQLVESGGGIVQAGGSLRLICAASGIIFPVYAMGWYRPAPGKERELVAAISRSGGSTYYADSVKGRFTISRDHAKNTVYLQMNSLKPEDTAVYYCAARYVVGYSLSSYGYWGQGTQVTVSS”: “high polyreactivity”; “QVQLVESGGGLVQAGGSLRLTCAASGSTFGYYAMGWNRQATGKERELVASITSDGSTNYADSVKGRFTISRDNAKNTVYLQMNSLKPEDTAVYYCAAYVWRYWHEYDYWGQGTQVTVSS”: “low polyreactivity”; “QVQLVESVGGLVEAGGRLGISCDDSGIIFRVNTIGCYRQAPGKERELVARSTGAGNKYYADSVKGRFTISRDNAKTTVYLQMNSLKPKDTAVYYCAVREFDNRRVIFYYWGQGTQVTVLS”: “high polyreactivity”.

Regarding “QVQLVESGGGLVQAGGSLRLSCAASGRIFGYYGMGWYRQAPGKERELVAAITDDGDSTYYADSVKGRFTISRDNAKNTVYLQMNSLKPEDTAVYYCNALGYYVNKMDYWGQGTQVTVSS”, the “polyreactivity (PSR sort gate)” value is “low polyreactivity”. Turning to “QVQLVESGGGLVQAGGSLRLSCAASGITFPYYAMGWYRQAPGKERELVAAISLSGGTTYYADSVKGRFTISRDNAKNTVYLQMNSLKPDDTAVYYCAARSSKFVTSNRYDYWGQGTQVTVSS”, the “polyreactivity (PSR sort gate)” value is given as “high polyreactivity”. In the case of “QVQLVESGGGLVQAGGSLRLSCAASGLTFYLYVMGWYRQAPGKERELVAAISRRGGTTYYADSVKGRFTISRDNAKNTVYLQMNSLKPEDTAVYYCAADFFAGTQRTFDYWGQGTQVTVSS”, the “polyreactivity (PSR sort gate)” value is on record as “high polyreactivity”. Next, “QGQLEESGGGLVQAGGSLRLSCAASGFIFGGNDMGWYRQAPGKERELVAAISKSGGRTYYADSVKGRFTISRDNAKNTVYLQMNSLKPEDTAVYYCAAVPGRTAEDYGEDYWGQGTQVTVSS”: “high polyreactivity”; “QVQLVESGGGLVQAGGSLRLSCAASGRTSYTNAMGWYRQAPGKERELVAAINYSGGSTYYADSVKGRFTISRDNAKNTVYLQMNSLKPEDTAVSYCAAERYYWYTEMGYWGQGTQVTVSS”: “high polyreactivity”. Next, “QDQLVESGGGLVHAGGSLRLSCAASGRTFFVYAMGWYRHAPGKEREMVANINQGGGSTSYADSVKGRFTISRDNAKNNVYLQMNSLKPEDTAVYYCNADHYGIGYDPVPLGFVGYDYWGQGTQVTVSS”: “low polyreactivity”; “QVQLVESGGGLVQAGGSLRLSCAASGSTFPSNAMGWYRQAPGKESELVAAISDSGSTTYYADSVKGRFTISRDNAKNTVYLQMNSLKPEDTAVYYCNAYLRFVDVSLDYQLLLEHDYWGQGTQVTVSS”: “low polyreactivity”. Take “QVQLVESGGGLVQAGGSLRLSCAASGRIFNQYAMGWYIQAPGKERELVAAISRRGGSTYYADSVKGRFTISRDNAKNTVYLQMNSLKPEDTAVYYCAAVGGYASYFHLYYYWGQGTQVTVSS”: the “polyreactivity (PSR sort gate)” value is recorded as “high polyreactivity”. With “QVQLVDSGGGLVQAGGSLRLSCAASGSILFEYMGWYRQAPGKERELVAAITIRDGGTYYADSVKGRFTISRDNAKNTVYLQMNSLKPEDTAVYYCNADFSGGWRYDYWGQGTQVTVSS”, the “polyreactivity (PSR sort gate)” value was “low polyreactivity”. Then “QVQLVESGGGLVQAGGSLRLSCAASGSTLWRSAMGWYRQAPGKERELVAGISRGGGSTYYADSVKGRFTISRDNAKNTVYLQMHSLKPEDTAVYYCATPVYQVRGAFDYWGQGTQVTVSS”, with “low polyreactivity”; and “QVQLVESGVGLVQAGGSLRLICAASGSIFYPYTMGWYRQAPGKERELVAAITINGGSTYYADSVKGRFTISRDNAKNTVYLQMNSLKPEDTAVYYCAAYYASPRHGYWGQGTQVTVSS”, with “low polyreactivity”. Then “QVQLVESGGGSVQAGGSLRLSCAASGIIFWYYTMGWYRQAPGKERELVAAISWSSGITYYADSVKGRFTISRDNAKNTVYLQMNSLKPEDTAVYYCAAAVSPHSEGFGEYNYWGQGTQVTVSS”, with “low polyreactivity”.
